# Measurements from patent US20040014151A1 (published 2004).
# B1: His-tagged C-phycocyanin β subunit, holo-HTβ (other, Anabaena sp. PCC7120, UniProt P07120 1-173, looked up)
# chain: MTLDVFTKVVSQADSRGEFLSNEQLDALANVVKEGNKRLDVVNRITSNASAIVTNAARALFEEQPQLIAPGGNAYTNRRMAACLRDMEIILRYVTYAILAGDASVLDDRCLNGLRETYQALGTPGSSVAVGVQKMKDAAVGIANDPNGITKGDCSQLISEVASYFDRAAAAVG
# modifications: two phycocyanobilins (PCB); methylated Asn72
# notes: Encoded by pBS262, expressed in Anabaena sp; also called An262; not shown: 24-residue N-terminal extension with 6xHis tag and TEV protease site
# Biological target: the molecule itself
# Experiment: SEC-HPLC of IMAC-purified protein from cpcE or cpcF mutant
protein,measurement,value
B1,binding result,binds
